Reference: IntAct's records for PubMed 29106382

B1: Angiopoietin-1 (Homo sapiens), Q15389 (parent)
chain: MTVFLSFAFLAAILTHIGCSNQRRSPENSGRRYNRIQHGQCAYTFILPEHDGNCRESTTDQYNTNALQRDAPHVEPDFSSQKLQHLEHVMENYTQWLQKLENYIVENMKSEMAQIQQNAVQNHTATMLEIGTSLLSQTAEQTRKLTDVETQVLNQTSRLEIQLLENSLSTYKLEKQLLQQTNEILKIHEKNSLLEHKILEMEGKHKEELDTLKEEKENLQGLVTRQTYIIQELEKQLNRATTNNSVLQKQQLELMDTVHNLVNLCTKEGVLLKGGKREEEKPFRDCADVYQAGFNKSGIYTIYINNMPEPKKVFCNMDVNGGGWTVIQHREDGSLDFQRGWKEYKMGFGNPSGEYWLGNEFIFAITSQRQYMLRIELMDWEGNRAYSQYDRFHIGNEKQNYRLYLKGHTGTAGKQSSLILHGADFSTKDADNDNCMCKCALMLTGGWWFDACGPSNLNGMFYTAGQNHGKLNGIKWHYFKGPSYSLRSTTMMIRPLDF

Variants of: B1
Details: with tie2_human TEK

effect of a mutation on the interaction	Variant
with no effect	MTVFLSFAFLAAILTHIGCSNQRRSPENSGRRYNRIQHGQCAYTFILPEHDGNCRESTTDQYNTNALQRDAPHVEPDFSSQKLQHLEHVMENYTQWLQKLENYIVENMKSEMAQIQQNAVQNHTATMLEIGTSLLSQTAEQTRKLTDVETQVLNQTSRLEIQLLENSLSTYKLEKQLLQQTNEILKIHEKNSLLEHKILEMEGKHKEELDTLKEEKENLQGLVTRQTYIIQELEKQLNRATTNNSVLQRQQLELMDTVHNLVNLCTKEGVLLKGGKREEEKPFRDCADVYQAGFNKSGIYTIYINNMPEPKKVFCNMDVNGGGWTVIQHREDGSLDFQRGWKEYKMGFGNPSGEYWLGNEFIFAITSQRQYMLRIELMDWEGNRAYSQYDRFHIGNEKQNYRLYLKGHTGTAGKQSSLILHGADFSTKDADNDNCMCKCALMLTGGWWFDACGPSNLNGMFYTAGQNHGKLNGIKWHYFKGPSYSLRSTTMMIRPLDF [K249R]
